{"source": "paper PMC2649695", "about": "(Circulation research, 2009)", "binders": {"B1": {"name": "Myc-tagged ROCK2 (natural protein, UniProt O75116 1-1388, looked up)", "chain": "MSRPPPTGKMPGAPETAPGDGAGASRQRKLEALIRDPRSPINVESLLDGLNSLVLDLDFPALRKNKNIDNFLNRYEKIVKKIRGLQMKAEDYDVVKVIGRGAFGEVQLVRHKASQKVYAMKLLSKFEMIKRSDSAFFWEERDIMAFANSPWVVQLFYAFQDDRYLYMVMEYMPGGDLVNLMSNYDVPEKWAKFYTAEVVLALDAIHSMGLIHRDVKPDNMLLDKHGHLKLADFGTCMKMDETGMVHCDTAVGTPDYISPEVLKSQGGDGFYGRECDWWSVGVFLYEMLVGDTPFYADSLVGTYSKIMDHKNSLCFPEDAEISKHAKNLICAFLTDREVRLGRNGVEEIRQHPFFKNDQWHWDNIRETAAPVVPELSSDIDSSNFDDIEDDKGDVETFPIPKAFVGNQLPFIGFTYYRENLLLSDSPSCRETDSIQSRKNEESQEIQKKLYTLEEHLSNEMQAKEELEQKCKSVNTRLEKTAKELEEEITLRKSVESALRQLEREKALLQHKNAEYQRKADHEADKKRNLENDVNSLKDQLEDLKKRNQNSQISTEKVNQLQRQLDETNALLRTESDTAARLRKTQAESSKQIQQLESNNRDLQDKNCLLETAKLKLEKEFINLQSALESERRDRTHGSEIINDLQGRICGLEEDLKNGKILLAKVELEKRQLQERFTDLEKEKSNMEIDMTYQLKVIQQSLEQEEAEHKATKARLADKNKIYESIEEAKSEAMKEMEKKLLEERTLKQKVENLLLEAEKRCSLLDCDLKQSQQKINELLKQKDVLNEDVRNLTLKIEQETQKRCLTQNDLKMQTQQVNTLKMSEKQLKQENNHLMEMKMNLEKQNAELRKERQDADGQMKELQDQLEAEQYFSTLYKTQVRELKEECEEKTKLGKELQQKKQELQDERDSLAAQLEITLTKADSEQLARSIAEEQYSDLEKEKIMKELEIKEMMARHKQELTEKDATIASLEETNRTLTSDVANLANEKEELNNKLKDVQEQLSRLKDEEISAAAIKAQFEKQLLTERTLKTQAVNKLAEIMNRKEPVKRGNDTDVRRKEKENRKLHMELKSEREKLTQQMIKYQKELNEMQAQIAEESQIRIELQMTLDSKDSDIEQLRSQLQALHIGLDSSSIGSGPGDAEADDGFPESRLEGWLSLPVRNNTKKFGWVKKYVIVSSKKILFYDSEQDKEQSNPYMVLDIDKLFHVRPVTQTDVYRADAKEIPRIFQILYANEGESKKEQEFPVEPVGEKSNYICHKGHEFIPTLYHFPTNCEACMKPLWHMFKPPPALECRRCHIKCHKDHMDKKEEIIAPCKVYYDISTAKNLLLLANSTEEQQKWVSRLVKKIPKKPPAPDPFARSSPRTSMKIQQNQSIRRPSRQLAPNKPS"}}, "target": "T1, GST-MBS 683-866 (UniProt O14974 683-866)", "T1 sequence (looked up)": "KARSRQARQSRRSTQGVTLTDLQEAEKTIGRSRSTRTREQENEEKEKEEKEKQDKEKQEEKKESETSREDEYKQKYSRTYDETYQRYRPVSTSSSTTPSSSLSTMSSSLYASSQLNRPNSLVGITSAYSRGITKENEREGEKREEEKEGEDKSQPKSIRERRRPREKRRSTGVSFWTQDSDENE", "assay": "pull-down"}
{"binder": "B1", "values": [{"measurement": "fold bound relative to mycROCK1", "value": 2, "unit": "fold"}]}
